In the supplement of paper PMC10065799, “High-throughput profiling of sequence recognition by tyrosine kinases and SH2 domains using bacterial peptide display” (eLife, 2023):

How the values were obtained:
[1] = biological target: MERTK (UniProt Q12866); assay: phosphorylation enrichment, bacterial display (enrichment ratio); higher = better substrate or ligand; peptides without Tyr show the background
[2] = biological target: EPHB1 (UniProt P54762); assay: as above
[3] = biological target: Jak2 (UniProt O60674); assay: as above
[4] = test system: c-Src; assay: as above
[5] = biological target: Hck (UniProt P08631); assay: as above
Sequence of Hck (P08631 whole entry, looked up): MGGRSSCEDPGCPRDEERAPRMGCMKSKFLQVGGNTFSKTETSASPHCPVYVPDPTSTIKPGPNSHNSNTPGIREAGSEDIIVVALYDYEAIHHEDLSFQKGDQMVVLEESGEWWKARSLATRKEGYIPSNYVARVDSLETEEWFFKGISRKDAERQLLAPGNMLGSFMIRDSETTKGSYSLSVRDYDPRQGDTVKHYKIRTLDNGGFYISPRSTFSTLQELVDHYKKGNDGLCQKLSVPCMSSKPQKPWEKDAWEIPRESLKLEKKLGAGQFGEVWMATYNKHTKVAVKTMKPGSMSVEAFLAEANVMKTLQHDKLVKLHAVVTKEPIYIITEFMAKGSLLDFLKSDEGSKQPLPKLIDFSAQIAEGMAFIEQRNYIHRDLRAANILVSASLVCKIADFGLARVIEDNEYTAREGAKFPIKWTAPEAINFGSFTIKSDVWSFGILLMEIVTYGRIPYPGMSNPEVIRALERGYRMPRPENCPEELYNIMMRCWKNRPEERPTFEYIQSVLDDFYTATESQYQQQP

[6] = biological target: FGFR1 (UniProt P11362); assay: as above
Sequence of FGFR1 (P11362 whole entry, looked up): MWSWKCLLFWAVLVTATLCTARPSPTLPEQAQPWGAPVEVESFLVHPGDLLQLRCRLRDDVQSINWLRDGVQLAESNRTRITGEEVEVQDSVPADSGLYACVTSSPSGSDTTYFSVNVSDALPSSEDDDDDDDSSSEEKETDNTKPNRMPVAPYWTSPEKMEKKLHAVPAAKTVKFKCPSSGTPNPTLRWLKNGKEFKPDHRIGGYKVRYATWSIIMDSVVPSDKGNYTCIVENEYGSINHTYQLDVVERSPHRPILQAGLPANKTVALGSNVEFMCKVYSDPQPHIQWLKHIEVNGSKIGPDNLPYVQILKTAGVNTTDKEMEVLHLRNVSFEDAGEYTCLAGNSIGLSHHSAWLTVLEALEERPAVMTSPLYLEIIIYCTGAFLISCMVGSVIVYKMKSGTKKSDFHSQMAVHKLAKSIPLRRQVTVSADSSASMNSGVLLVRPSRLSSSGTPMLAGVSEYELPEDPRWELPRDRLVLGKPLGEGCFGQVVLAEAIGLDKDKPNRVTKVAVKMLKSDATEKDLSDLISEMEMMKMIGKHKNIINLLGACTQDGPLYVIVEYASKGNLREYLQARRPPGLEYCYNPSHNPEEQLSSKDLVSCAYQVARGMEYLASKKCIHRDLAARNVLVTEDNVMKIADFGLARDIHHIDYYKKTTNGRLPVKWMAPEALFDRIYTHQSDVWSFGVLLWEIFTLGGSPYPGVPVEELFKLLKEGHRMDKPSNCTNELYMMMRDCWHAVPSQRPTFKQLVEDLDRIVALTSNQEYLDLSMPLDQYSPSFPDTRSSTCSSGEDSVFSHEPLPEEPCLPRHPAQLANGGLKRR

[7] = biological target: FGFR3 (UniProt P22607); assay: as above
Sequence of FGFR3 (P22607 whole entry, looked up): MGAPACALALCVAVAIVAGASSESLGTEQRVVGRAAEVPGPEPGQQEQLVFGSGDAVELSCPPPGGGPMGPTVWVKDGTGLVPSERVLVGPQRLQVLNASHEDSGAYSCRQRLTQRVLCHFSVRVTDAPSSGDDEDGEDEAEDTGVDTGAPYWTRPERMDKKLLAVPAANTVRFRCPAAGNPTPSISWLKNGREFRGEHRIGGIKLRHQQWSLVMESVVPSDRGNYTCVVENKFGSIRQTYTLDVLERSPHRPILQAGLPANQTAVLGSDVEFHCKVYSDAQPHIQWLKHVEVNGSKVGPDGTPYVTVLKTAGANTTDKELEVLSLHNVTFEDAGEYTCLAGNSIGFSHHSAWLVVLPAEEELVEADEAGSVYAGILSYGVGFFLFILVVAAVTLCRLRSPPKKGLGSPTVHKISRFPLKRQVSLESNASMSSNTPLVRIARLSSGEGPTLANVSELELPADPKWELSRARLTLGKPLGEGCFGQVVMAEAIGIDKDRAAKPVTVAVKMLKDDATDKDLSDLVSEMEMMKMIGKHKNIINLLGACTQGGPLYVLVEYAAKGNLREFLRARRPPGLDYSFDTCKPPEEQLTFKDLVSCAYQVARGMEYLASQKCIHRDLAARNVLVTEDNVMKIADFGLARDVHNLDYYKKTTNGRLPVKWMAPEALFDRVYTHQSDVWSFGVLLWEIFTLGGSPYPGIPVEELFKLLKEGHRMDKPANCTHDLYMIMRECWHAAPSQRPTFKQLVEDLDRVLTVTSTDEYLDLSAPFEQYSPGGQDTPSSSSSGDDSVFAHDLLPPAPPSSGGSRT

[8] = biological target: Fes (UniProt P07332); assay: as above
[9] = biological target: Fyn (UniProt P06241); assay: as above
Sequence of Fyn (P06241 whole entry, looked up): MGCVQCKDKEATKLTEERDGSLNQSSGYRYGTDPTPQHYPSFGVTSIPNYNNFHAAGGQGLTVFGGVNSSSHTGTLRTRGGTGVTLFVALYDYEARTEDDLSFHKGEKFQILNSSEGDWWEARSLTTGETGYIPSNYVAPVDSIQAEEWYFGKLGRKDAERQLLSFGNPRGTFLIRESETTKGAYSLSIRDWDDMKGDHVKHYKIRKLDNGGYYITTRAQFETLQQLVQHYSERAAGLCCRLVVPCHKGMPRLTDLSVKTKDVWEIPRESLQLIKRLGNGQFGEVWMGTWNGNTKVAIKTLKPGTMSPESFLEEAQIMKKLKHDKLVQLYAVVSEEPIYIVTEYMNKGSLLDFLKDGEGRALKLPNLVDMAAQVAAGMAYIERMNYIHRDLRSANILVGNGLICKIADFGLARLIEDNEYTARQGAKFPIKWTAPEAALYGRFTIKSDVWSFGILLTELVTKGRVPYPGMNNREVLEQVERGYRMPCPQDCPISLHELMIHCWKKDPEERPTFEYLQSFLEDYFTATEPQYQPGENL

[10] = test system: c-Abl (mouse); assay: as above
[11] = biological target: EPHB2 (UniProt P29323); assay: as above
Sequence of EPHB2 (P29323 whole entry, looked up): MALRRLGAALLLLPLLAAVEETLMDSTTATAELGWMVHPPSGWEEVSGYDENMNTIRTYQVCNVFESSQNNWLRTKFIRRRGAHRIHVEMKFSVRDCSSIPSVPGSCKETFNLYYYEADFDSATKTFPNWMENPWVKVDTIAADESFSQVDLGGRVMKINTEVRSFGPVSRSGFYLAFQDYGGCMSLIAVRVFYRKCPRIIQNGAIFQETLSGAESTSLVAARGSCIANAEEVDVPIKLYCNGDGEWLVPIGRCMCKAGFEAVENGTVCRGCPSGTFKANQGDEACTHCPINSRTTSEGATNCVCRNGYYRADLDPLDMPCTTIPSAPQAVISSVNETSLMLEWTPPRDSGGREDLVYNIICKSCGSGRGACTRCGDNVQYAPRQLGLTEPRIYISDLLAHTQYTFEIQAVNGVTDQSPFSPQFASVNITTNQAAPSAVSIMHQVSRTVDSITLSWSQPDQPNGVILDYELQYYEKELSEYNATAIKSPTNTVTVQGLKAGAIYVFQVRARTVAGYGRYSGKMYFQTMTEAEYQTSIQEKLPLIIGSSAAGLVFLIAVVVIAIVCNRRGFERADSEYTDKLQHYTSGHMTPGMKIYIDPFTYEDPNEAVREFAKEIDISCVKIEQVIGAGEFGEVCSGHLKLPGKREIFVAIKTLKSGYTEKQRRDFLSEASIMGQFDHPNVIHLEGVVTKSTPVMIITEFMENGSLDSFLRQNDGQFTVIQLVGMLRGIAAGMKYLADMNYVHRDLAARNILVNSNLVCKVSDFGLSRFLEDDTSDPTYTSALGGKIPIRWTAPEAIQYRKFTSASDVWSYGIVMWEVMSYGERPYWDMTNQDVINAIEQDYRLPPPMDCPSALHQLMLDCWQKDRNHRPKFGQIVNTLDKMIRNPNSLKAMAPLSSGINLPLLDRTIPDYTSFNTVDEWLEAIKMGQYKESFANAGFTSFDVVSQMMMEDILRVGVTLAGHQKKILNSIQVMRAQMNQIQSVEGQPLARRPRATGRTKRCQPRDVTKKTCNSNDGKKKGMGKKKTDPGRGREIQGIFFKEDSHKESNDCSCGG

[12] = test system: Fer (mouse); assay: as above
[13] = test system: AncSZ; assay: as above
[14] = biological target: c-Src SH2; assay: SH2 binding enrichment of the phosphorylated peptide, bacterial display (enrichment ratio); higher = better substrate or ligand; peptides without Tyr show the background
[15] = biological target: Grb2 SH2 (UniProt P62993); assay: as above
[16] = biological target: SHP2-C SH2; assay: as above
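Wherever SH2 binding enrichment of the phosphorylated peptide, bacterial display is given: peptide library displayed on the E. coli surface as eCPX fusions, selected cells deep-sequenced, score is each peptide's frequency after selection divided by its frequency in the input.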
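Wherever phosphorylation enrichment, bacterial display is given: 11-residue human phosphosite peptides and single-mutation variants displayed on the E. coli surface, counted by deep sequencing, each peptide's frequency after selection divided by its frequency in the unselected input library; frequency after pTyr selection over input frequency; kinase dosed for 20-30% of maximal phosphorylation in three min.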

Sequence of EPHB1 (P54762 whole entry, looked up): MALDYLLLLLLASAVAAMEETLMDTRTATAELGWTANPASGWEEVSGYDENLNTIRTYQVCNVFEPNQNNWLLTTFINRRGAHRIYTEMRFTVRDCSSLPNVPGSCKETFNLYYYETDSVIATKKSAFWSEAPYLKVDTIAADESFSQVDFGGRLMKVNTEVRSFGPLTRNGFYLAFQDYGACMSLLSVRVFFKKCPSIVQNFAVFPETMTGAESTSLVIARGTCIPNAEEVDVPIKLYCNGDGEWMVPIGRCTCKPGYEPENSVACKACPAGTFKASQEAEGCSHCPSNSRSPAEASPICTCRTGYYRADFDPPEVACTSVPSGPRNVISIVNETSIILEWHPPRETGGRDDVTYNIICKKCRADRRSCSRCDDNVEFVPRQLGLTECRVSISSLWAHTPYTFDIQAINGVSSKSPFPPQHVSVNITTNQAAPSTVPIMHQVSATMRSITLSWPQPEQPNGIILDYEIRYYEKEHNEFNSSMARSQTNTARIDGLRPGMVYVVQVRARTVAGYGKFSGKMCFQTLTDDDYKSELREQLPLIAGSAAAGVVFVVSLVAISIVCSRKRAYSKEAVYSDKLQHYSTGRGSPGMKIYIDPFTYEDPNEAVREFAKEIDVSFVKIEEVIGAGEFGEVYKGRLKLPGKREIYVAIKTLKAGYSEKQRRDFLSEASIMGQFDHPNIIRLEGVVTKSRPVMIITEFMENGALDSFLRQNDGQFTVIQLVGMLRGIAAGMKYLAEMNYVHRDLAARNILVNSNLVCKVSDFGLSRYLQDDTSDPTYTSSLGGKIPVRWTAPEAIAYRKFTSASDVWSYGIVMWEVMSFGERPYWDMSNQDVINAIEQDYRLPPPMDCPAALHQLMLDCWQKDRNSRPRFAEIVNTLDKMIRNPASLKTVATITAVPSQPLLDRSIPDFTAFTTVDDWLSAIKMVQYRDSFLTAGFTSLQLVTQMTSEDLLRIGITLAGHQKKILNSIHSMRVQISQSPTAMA

Sequence	SH2 binding enrichment [14]	SH2 binding enrichment [15]	SH2 binding enrichment [16]	phosphorylation enrichment [1]	phosphorylation enrichment [2]	phosphorylation enrichment [3]	phosphorylation enrichment [4]	phosphorylation enrichment [5]	phosphorylation enrichment [6]	phosphorylation enrichment [7]	phosphorylation enrichment [8]	phosphorylation enrichment [9]	phosphorylation enrichment [10]	phosphorylation enrichment [11]	phosphorylation enrichment [12]	phosphorylation enrichment [13]
IKKFKYRIEEH [GJA1_Y137_G138R]	0.557	0.847	0.77	0.345	0.392	0.717	0.363	0.336	0.402	0.495	0.83	0.398	0.449	0.389	0.361	0.653
RGVTRYIYNRE [HLA-DQB1_Y62_Y58G]	0.527	0.802	0.756	0.865	0.912	1.25	0.953	0.97	0.809	0.619	1.16	0.96	1	0.547	0.768	1.34
LEYNEYFRDLN [HPRT1_Y198_D194E]	0.451	0.998	0.592	0.605	1.18	2.17	1.14	0.847	1.89	1.75	2.09	1.01	1.3	0.975	0.804	2.6
LNNIIYRVERA [CUX2_Y1470]	0.558	1.13	1.62	0.43	0.87	1.22	1.33	0.738	0.825	0.816	1.34	0.936	0.864	0.958	0.748	1.48
GGGGSYNDFGN [HNRNPA1_Y312]	0.513	0.745	0.659	0.422	0.433	0.579	0.441	0.474	0.471	0.5	0.791	1.17	0.458	0.39	0.33	0.599
VDTFWYKFLKR [EPM2A_Y86]	0.602	0.957	1.04	0.432	0.657	1.05	0.371	0.467	0.553	0.716	1.18	0.406	0.78	0.629	0.525	1.21
LTNDRYVATLT [IL6ST_Y396_L397V]	0.537	0.764	0.527	0.622	0.607	0.808	0.69	0.394	0.619	0.82	0.791	0.576	0.434	0.72	0.408	0.683
TWSSSYRSDRL [CRYBB1_Y131]	0.473	0.997	0.722	0.448	0.441	0.621	0.451	0.419	0.398	0.389	1.07	0.456	0.593	0.608	0.477	0.682
TLRETYGEMAD [ALB_Y108]	0.91	1.11	0.579	0.454	0.54	0.982	0.702	0.555	0.519	0.836	1.2	0.627	0.885	0.559	0.446	0.999
KNGSNYVVKGN [KIT_Y823_D820G]	0.527	0.837	0.782	0.466	0.346	0.484	0.482	0.45	0.435	0.368	0.576	0.449	0.411	0.38	0.375	0.526
NSIGNYYKPWF [DHCR24_Y299]	1.09	1.14	2.39	8.27	14.5	9.63	0.69	1	5.3	4.33	0.774	0.568	14.1	15.2	0.52	1.14
LTERGYSFTTK [ACTG1_Y198_T203K]	0.454	0.679	0.653	1.79	1.8	1.65	0.982	0.911	1.96	1.54	2.1	1.66	0.995	2.03	2.1	3
PFFASYPPSPD [GDAP2_Y491_T489A_YF]	0.658	1.01	0.847	0.769	0.99	1.02	0.488	1.11	0.747	0.839	1.23	0.784	0.859	0.865	0.435	1.03
NRLTDYFELLL [BBS10_Y536_P539L_YF]	0.834	1.33	1.29	0.442	0.654	1.35	0.619	0.509	7.17	5	1.31	0.622	0.765	0.633	0.534	1.36
GDNNIYVTKII [DLG1_Y349_S347N]	0.546	0.836	0.687	0.461	0.525	0.942	0.93	1.21	0.574	0.61	0.991	0.894	0.701	0.556	0.595	0.806
PINEPYGDDMD [JUP_Y693]	0.601	1.04	1.05	0.919	0.944	1.89	0.858	0.981	1.15	1.34	1.75	1.03	1.25	0.985	0.837	2.44
HHFAAYFQQGD [GPI_Y351_R347H]	0.661	1.21	0.898	0.475	0.581	0.989	0.725	0.549	0.669	1.19	1.13	0.418	0.945	0.602	0.435	0.906
LAARYYNWVSF [FLT4_Y1231]	2.3	6.96	1.38	4.42	1.09	2.14	1	0.64	4.29	3.57	1.8	0.654	1.68	1.02	5.18	1.55
ANLAKYGNPNE [BCHE_Y505_F502L]	0.425	0.645	0.639	0.379	0.492	0.622	0.306	0.403	0.392	0.65	0.779	0.385	0.565	0.455	0.391	0.778
LQPNNYQFCGG [CSF1R_Y969]	1.44	1.24	0.889	1.6	4.08	1.24	0.632	0.86	1.04	1.09	1.18	1.14	2.74	2.2	0.627	1.49

The next lines start with results.

SH2 binding enrichment [14]	SH2 binding enrichment [15]	SH2 binding enrichment [16]	Sequence	phosphorylation enrichment [1]	phosphorylation enrichment [2]	phosphorylation enrichment [3]	phosphorylation enrichment [4]	phosphorylation enrichment [5]	phosphorylation enrichment [6]	phosphorylation enrichment [7]	phosphorylation enrichment [8]	phosphorylation enrichment [9]	phosphorylation enrichment [10]	phosphorylation enrichment [11]	phosphorylation enrichment [12]	phosphorylation enrichment [13]
0.448	0.742	0.791	GYGGGYGGVLT [KRT19_Y65_A60G]	0.391	0.359	0.575	0.453	0.665	0.468	0.511	0.641	0.42	0.468	0.47	0.419	0.556
0.653	1.1	0.795	CTTIHKNFMCN [TP53_Y234_Y234K_YF]	0.42	0.394	0.553	0.448	0.405	0.486	0.585	0.699	0.409	0.49	0.53	0.453	0.831
0.646	0.868	0.627	EQKKYSNAMKK [SCN5A_Y1495_Y1495S]	0.29	0.326	0.437	0.262	0.467	0.304	0.459	0.53	0.322	0.469	0.333	0.247	0.498
0.497	0.955	0.862	LHSEAYLKYNE [PBRM1_Y1610_I1614N]	0.397	0.393	0.744	0.586	0.395	0.409	0.585	0.757	0.35	1.25	0.45	0.311	0.751
0.495	0.784	0.635	SYSGEYGGGGG [ZG16_Y30]	0.439	0.398	0.4	0.385	0.525	0.53	0.552	0.685	0.485	0.433	0.452	0.444	0.604
2.94	1.6	1.96	CTTIHYYYMCN [TP53_Y234_N235Y]	0.767	0.585	1.27	1.05	0.804	2.74	2.11	1.08	1.41	0.644	0.773	0.574	0.991
0.772	0.978	0.863	FGTAQYCCRMG [LRRK2_Y2023_I2020T_YF]	1.79	0.598	0.515	0.403	0.518	0.56	0.517	0.693	0.463	1.28	8.12	0.499	0.663
0.466	0.792	0.595	SKLTIYDARPS [MTM1_Y277]	0.825	0.629	0.655	2.05	7.23	0.606	0.751	1.17	2.4	0.593	0.737	0.484	0.779
0.849	0.703	0.607	IDSTPYGQWYE [RPS8_Y109_R110G]	0.526	0.596	0.984	3.33	1.37	0.741	0.701	1.18	2.59	0.719	0.612	1.13	1.12
0.849	1.02	0.786	LGSNGCKKLLK [SEPSECS_Y334_Y334C]	0.866	0.611	1.06	0.663	0.768	0.661	0.868	0.826	0.567	1.06	1.04	0.472	0.823
0.716	0.894	1.35	CTTIHYIYMCN [TP53_Y234_N235I]	0.281	0.459	0.907	0.263	0.322	0.404	0.548	0.989	0.254	0.742	0.461	0.478	0.728
0.768	0.854	0.847	CQAHGYSCQLI [STK11_Y156_F157S]	0.47	0.568	0.556	0.435	0.5	0.529	0.531	0.925	0.648	0.492	0.508	0.506	0.77
0.319	0.699	0.589	DYGSGYPNDPK [RNASEH2A_Y210]	0.569	0.482	0.93	0.575	0.574	0.548	0.643	1.01	0.474	0.778	0.625	0.538	0.86
